For one molecule, remaining activity results are on record in patent publication US9176064B2, “Bisubstrate fluorescent probes for protein kinase CK2” (University of Tartu, priority 2012, dated 2015).

Targets include Lck (Homo sapiens, UniProt P06239); MLK3 (Homo sapiens, UniProt Q16584); PAK4 (Homo sapiens, UniProt O96013).
Common to all, as to experiment: Kinase panel residual activity
What all share (assay type): biochemical
What all share (conditions): compound at 1 micromolar

A further series concerns the target T1, PKCz (Homo sapiens, UniProt Q05513).
T1 sequence (Q05513 1-592): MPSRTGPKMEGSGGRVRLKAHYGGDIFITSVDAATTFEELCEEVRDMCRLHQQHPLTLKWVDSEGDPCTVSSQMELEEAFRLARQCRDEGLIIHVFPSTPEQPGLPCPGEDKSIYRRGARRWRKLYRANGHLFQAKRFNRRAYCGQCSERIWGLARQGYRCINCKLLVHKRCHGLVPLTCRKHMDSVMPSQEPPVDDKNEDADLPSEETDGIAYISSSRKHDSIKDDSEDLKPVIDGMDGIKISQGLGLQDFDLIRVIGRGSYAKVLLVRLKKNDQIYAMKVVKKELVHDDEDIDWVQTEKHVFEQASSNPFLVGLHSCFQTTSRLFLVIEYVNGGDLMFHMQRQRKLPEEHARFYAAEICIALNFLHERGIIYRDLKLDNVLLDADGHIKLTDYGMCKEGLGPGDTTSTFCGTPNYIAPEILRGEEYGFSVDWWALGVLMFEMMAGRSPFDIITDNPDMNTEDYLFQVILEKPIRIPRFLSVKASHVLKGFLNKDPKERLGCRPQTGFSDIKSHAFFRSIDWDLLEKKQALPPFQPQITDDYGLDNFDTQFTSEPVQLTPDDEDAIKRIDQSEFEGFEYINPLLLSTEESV

A further series deals with T2, MST2 (Homo sapiens, UniProt Q13188).
T2 sequence (Q13188 1-491): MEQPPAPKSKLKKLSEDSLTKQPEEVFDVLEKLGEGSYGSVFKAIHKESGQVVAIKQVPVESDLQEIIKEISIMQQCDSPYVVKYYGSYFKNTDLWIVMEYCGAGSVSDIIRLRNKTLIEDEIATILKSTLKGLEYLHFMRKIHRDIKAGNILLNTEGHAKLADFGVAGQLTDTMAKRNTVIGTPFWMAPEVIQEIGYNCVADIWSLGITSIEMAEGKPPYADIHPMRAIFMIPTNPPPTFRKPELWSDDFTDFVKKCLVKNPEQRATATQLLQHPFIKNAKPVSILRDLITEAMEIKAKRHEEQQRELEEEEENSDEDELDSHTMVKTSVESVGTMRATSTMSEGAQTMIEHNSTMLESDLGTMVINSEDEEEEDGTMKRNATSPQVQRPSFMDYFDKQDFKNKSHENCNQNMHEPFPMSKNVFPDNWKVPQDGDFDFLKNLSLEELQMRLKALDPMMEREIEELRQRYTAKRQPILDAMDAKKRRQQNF

The target of a further series is T3, p38g MAPK (Homo sapiens, UniProt P53778).
T3 sequence (P53778 1-367): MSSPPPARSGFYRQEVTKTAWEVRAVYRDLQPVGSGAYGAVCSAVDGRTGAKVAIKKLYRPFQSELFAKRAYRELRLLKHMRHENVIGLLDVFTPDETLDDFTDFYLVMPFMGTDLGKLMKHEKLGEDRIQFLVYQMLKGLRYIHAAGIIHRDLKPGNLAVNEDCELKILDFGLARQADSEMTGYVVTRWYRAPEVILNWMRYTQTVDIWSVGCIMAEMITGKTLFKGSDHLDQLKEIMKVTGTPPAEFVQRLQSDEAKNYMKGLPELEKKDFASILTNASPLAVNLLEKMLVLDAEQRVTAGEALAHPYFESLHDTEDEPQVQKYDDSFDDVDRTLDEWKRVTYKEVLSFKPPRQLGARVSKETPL

A further series addresses T4, ULK2 (Homo sapiens, UniProt Q8IYT8).
T4 sequence (Q8IYT8 1-1036): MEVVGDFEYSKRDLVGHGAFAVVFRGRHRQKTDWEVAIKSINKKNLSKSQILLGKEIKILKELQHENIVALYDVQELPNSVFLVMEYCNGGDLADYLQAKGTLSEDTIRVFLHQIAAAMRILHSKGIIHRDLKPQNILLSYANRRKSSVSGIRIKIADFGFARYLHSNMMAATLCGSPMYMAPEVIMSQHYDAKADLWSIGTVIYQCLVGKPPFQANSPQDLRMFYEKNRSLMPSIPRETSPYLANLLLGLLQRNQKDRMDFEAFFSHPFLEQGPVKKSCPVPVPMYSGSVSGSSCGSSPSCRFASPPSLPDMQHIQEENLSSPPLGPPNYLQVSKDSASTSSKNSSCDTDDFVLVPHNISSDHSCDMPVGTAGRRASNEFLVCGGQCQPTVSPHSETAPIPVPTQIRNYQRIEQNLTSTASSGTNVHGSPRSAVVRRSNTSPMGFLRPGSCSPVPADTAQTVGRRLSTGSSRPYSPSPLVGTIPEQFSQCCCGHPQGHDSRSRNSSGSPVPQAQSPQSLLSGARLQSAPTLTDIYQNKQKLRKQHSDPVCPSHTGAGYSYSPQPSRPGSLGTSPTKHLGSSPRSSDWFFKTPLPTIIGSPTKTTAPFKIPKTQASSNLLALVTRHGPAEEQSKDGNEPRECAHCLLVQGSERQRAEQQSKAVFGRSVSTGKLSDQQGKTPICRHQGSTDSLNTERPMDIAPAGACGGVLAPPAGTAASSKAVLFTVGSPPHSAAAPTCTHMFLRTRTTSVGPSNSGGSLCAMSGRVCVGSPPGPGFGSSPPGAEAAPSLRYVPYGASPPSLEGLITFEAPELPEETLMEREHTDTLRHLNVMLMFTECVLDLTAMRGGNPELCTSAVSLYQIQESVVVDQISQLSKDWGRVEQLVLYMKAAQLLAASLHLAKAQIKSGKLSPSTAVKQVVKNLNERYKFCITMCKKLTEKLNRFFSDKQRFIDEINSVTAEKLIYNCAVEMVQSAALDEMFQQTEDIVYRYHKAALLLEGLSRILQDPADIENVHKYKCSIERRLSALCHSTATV

Where a SMILES comes first, the peptide text is derived from it. [ ]: non-standard residue; d: D form. The star is where a group is joined. X1 = O=C(CCCCCCCn1cnc2c(Br)c(Br)c(Br)c(Br)c21)*

MLK3, sequence (Q16584 whole entry, species assumed): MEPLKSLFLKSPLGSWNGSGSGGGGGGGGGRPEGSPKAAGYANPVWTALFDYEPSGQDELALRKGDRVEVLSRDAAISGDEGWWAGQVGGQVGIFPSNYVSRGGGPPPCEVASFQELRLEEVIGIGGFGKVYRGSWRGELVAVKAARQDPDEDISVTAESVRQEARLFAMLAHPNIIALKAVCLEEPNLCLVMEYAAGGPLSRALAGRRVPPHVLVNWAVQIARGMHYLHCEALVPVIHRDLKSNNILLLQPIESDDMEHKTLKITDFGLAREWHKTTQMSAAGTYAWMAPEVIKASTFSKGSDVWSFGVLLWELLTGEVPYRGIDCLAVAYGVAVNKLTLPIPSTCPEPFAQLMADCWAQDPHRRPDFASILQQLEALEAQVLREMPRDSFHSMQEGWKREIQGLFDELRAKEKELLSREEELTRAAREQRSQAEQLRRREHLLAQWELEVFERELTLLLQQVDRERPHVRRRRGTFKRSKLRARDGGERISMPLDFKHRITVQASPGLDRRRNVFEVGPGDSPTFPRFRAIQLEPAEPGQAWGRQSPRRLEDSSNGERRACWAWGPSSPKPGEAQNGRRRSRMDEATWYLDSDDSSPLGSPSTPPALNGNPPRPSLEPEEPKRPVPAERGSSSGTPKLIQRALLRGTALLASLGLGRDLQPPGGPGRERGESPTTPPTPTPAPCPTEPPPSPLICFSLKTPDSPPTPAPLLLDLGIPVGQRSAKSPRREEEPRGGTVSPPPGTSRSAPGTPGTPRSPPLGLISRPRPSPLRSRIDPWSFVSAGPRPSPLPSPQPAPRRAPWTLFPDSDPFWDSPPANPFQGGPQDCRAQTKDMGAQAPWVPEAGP
Lck, sequence (P06239 whole entry, species assumed): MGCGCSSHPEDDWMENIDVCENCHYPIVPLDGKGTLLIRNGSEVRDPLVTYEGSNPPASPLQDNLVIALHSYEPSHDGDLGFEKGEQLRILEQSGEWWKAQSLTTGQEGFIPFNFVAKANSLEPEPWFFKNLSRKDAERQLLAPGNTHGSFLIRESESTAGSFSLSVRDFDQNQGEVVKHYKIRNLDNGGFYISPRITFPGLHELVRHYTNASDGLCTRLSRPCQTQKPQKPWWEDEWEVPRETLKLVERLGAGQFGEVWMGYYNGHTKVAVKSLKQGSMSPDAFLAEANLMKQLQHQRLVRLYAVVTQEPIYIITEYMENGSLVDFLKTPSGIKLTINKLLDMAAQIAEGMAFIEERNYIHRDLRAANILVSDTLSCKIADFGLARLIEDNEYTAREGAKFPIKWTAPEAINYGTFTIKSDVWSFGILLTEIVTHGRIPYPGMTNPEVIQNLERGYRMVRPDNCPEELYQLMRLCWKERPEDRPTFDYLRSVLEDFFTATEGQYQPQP
PAK4, sequence (O96013 whole entry, species assumed): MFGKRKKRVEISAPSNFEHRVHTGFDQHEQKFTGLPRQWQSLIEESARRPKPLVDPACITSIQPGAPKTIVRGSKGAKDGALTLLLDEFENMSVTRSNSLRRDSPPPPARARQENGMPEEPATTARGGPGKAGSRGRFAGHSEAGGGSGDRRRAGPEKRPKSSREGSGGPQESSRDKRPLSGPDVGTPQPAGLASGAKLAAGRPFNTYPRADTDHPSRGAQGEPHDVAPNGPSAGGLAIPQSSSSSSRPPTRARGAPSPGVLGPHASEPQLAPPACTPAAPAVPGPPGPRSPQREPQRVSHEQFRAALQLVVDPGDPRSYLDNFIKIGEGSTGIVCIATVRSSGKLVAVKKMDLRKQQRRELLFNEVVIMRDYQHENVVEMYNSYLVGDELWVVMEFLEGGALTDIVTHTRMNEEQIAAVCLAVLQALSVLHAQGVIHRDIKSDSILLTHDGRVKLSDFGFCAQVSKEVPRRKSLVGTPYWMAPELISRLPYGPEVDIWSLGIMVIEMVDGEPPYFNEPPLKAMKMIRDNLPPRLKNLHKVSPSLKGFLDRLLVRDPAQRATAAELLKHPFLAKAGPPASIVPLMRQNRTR

`NCCCC[C@H](NC(=O)[C@H](CC(=O)O)NC(=O)[C@H](CC(=O)O)NC(=O)[C@H](CC(=O)O)NC(=O)[C@H](CC(=O)O)NC(=O)[C@H](CC(=O)O)NC(=O)[C@@H](CC(=O)O)NC(=O)CCCCCCCn1cnc2c(Br)c(Br)c(Br)c(Br)c21)C(=O)O` [TBBI-OcA-(D-Asp)-(L-Asp)5-(L-Lys)-OH] (X1-[dD]DDDDDK-OH): the remaining activity at 1 µM with Lck is 62%; with PKCz it was 105%; in the series with MLK3 it was 89%; with MST2, 99%; with PAK4, 71%; with p38g MAPK, 97%. The remaining activity at 1 µM with ULK2 was 110%.

The remaining activity is the signal under treatment as a percentage of the control signal.
